How the values were obtained:
[1] = Small-scale anaerobic C—H amination with purified enzymes, azide 4; format: biochemical; conditions: for Product (5): 0.1% loading, azide 4
Method: Hemin also was capable of catalyzing this reaction when reduced with dithionite (Table 13).
Small scale reactions containing either 0.1% loading of ABC-CIS or ABC-T268A or 1% loading of hemin with azides 1, 4, or 6 according to standard procedures.
Small-scale reactions (400 μL) were conducted in 2 mL crimp vials (Agilent Technologies, San Diego, Calif.) containing buffer (0.1 M potassium phosphate pH 8.0), enzyme (0.1-0.5% catalyst loading) and oxygen depletion system (10× stock solution containing 14,000 U/mL catalase, 1,000 U/mL glucose oxidase dissolved in 0.1 M KPi pH 8.0). Enzyme (P450 or P411) solution and oxygen depletion mixture were added to the vial with a small stir bar before crimp-sealing. Portions of phosphate buffer (190 μL, 0.1 M, pH=8.0), glucose (40 μL, 250 mM) and NADPH (40 μL, 20 mM), or multiples thereof, were combined in a larger crimp sealed vial and degassed by sparging with argon for at least 5 min. In the meantime, the headspace of the sealed 2 mL reaction vial with the P450 solution was made anaerobic by flushing argon over the protein solution (with no bubbling). The buffer/reductant/glucose solution (270 μL) was syringed into the reaction vial with continuous argon purge of the vial headspace. An arylsulfonyl azide solution in DMSO (10 μL, 80 mM) was added to the reaction vial via a glass syringe, and the reaction was left stirring for 24 h at room temperature under positive argon pressure. Final concentrations of the reagents were typically: 2 mM arylsulfonyl azide, 2 mM NADPH, 25 mM glucose, 2 or 10 μM P450. Reactions were quenched by adding 30 μL 3 M HCl under argon. To the vials were then added acetonitrile (430 uL) and internal standard (o-toluenesulfonamide 10 mM in 50% acetonitrile 50% water, 1 mM final concentration). […] A portion (20 μL) of the supernatant was then analyzed by HPLC. […] Sultam formation was quantified comparison of integrated peak areas of internal standard and sultam at 220 nm to a calibration curve made using synthetically produced sultam and internal standard.

[2] = N—H insertion, aniline with ethyl diazo acetate (EDA); format: biochemical; conditions: for TTn / % Yield: protein 10 uM, EDA 8.5 mM, aniline 20 mM, Na2S2O4 10 mM, 12 h; for % Yield: product 4.3
Outline: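 Final reactions contained 10 or 20 μM P450BM3 variant, 20 mM aniline, 8.5 mM EDA and 10 mM Na2S2O4 in 0.1 M phosphate pH 8.0 under argon, with MeOH cosolvent. After 12 h at 25° C, products were extracted into cyclohexane and quantified by GC-FID against phenethyl alcohol internal standard and calibration curves from authentic standards, giving yield and TTN.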

Row | Molecule | activity on substrate 4 ([1]; free hemin, 1% loading) | ratio of single to double insertion products ([2]; 1 mol % hemin) | total product yield ([2]; 1 mol % hemin) | TTn [2] | % Yield ([2]; listed as BM3-WT) | % Yield ([2]; listed as WT-BM3) | % Yield [2] | Product (5) [1]
1 | hemin | no measurable activity | 3.5 to 1 | 51% |  |  |  |  | 
2 | P450BM3: wild-type cytochrome P450BM3 from Bacillus megaterium (SEQ ID NO: 1) (protein, listed as Bacillus megaterium, cytochrome P450NADPH-P-450 reductase precursor, cytochrome P450 (BM3), CYP102A1) TIKEMPQPKTFGELKNLPLLNTDKPVQALMKIADELGEIFKFEAPGRVTRYLSSQRLIKEACDESRFDKNLSQALKFVRDFAGDGLFTSWTHEKNWKKAHNILLPSFSQQAMKGYHAMMVDIAVQLVQKWERLNADEHIEVPEDMTRLTLDTIGLCGFNYRFNSFYRDQPHPFITSMVRALDEAMNKLQRANPDDPAYDENKRQFQEDIKVMNDLVDKIIADRKASGEQSDDLLTHMLNGKDPETGEPLDDENIRYQIITFLIAGHETTSGLLSFALYFLVKNPHVLQKAAEEAARVLVDPVPSYKQVKQLKYVGMVLNEALRLWPTAPAFSLYAKEDTVLGGEYPLEKGDELMVLIPQLHRDKTIWGDDVEEFRPERFENPSAIPQHAFKPFGNGQRACIGQQFALHEATLVLGMMLKHFDFEDHTNYELDIKETLTLKPEGFVVKAKSKKIPLGGIPSPSTEQSAKKVRKKAENAHNTPLLVLYGSNMGTAEGTARDLADIAMSKGFAPQVATLDSHAGNLPREGAVLIVTASYNGHPPDNAKQFVDWLDQASADEVKGVRYSVFGCGDKNWATTYQKVPAFIDETLAAKGAENIADRGEADASDDFEGTYEEWREHMWSDVAAYFNLDIENSEDNKSTLSLQFVDSAADMPLAKMHGAFSTNVVASKELQQPGSARSTRHLEIELPKEASYQEGDHLGVIPRNYEGIVNRVTARFGLDASQQIRLEAEEEKLAHLPLAKTVSVEELLQYVELQDPVTRTQLRAMAAKTVCPPHKVELEALLEKQAYKEQVLAKRLTMLELLEKYPACEMKFSEFIALLPSIRPRYYSISSSPRVDEKQASITVSVVSGEAWSGYGEYKGIASNYLAELQEGDTITCFISTPQSEFTLPKDPETPLIMVGPGTGVAPFRGFVQARKQLKEQGQSLGEAHLYFGCRSPHEDYLYQEELENAQSEGIITLHTAFSRMPNQPKTYVQHVMEQDGKKLIELLDQGAHFYICGDGSQMAPAVEATLMKSYADVHQVSEADARLWLQQLEEKGRYAKDVWAG |  |  |  | 17 | 1.7% | trace amounts |  | 
3 | BM3-T268A: P450BM3 variant: T268A (protein, listed as Bacillus megaterium, cytochrome P450NADPH-P-450 reductase precursor, cytochrome P450 (BM3), CYP102A1) TIKEMPQPKTFGELKNLPLLNTDKPVQALMKIADELGEIFKFEAPGRVTRYLSSQRLIKEACDESRFDKNLSQALKFVRDFAGDGLFTSWTHEKNWKKAHNILLPSFSQQAMKGYHAMMVDIAVQLVQKWERLNADEHIEVPEDMTRLTLDTIGLCGFNYRFNSFYRDQPHPFITSMVRALDEAMNKLQRANPDDPAYDENKRQFQEDIKVMNDLVDKIIADRKASGEQSDDLLTHMLNGKDPETGEPLDDENIRYQIITFLIAGHEATSGLLSFALYFLVKNPHVLQKAAEEAARVLVDPVPSYKQVKQLKYVGMVLNEALRLWPTAPAFSLYAKEDTVLGGEYPLEKGDELMVLIPQLHRDKTIWGDDVEEFRPERFENPSAIPQHAFKPFGNGQRACIGQQFALHEATLVLGMMLKHFDFEDHTNYELDIKETLTLKPEGFVVKAKSKKIPLGGIPSPSTEQSAKKVRKKAENAHNTPLLVLYGSNMGTAEGTARDLADIAMSKGFAPQVATLDSHAGNLPREGAVLIVTASYNGHPPDNAKQFVDWLDQASADEVKGVRYSVFGCGDKNWATTYQKVPAFIDETLAAKGAENIADRGEADASDDFEGTYEEWREHMWSDVAAYFNLDIENSEDNKSTLSLQFVDSAADMPLAKMHGAFSTNVVASKELQQPGSARSTRHLEIELPKEASYQEGDHLGVIPRNYEGIVNRVTARFGLDASQQIRLEAEEEKLAHLPLAKTVSVEELLQYVELQDPVTRTQLRAMAAKTVCPPHKVELEALLEKQAYKEQVLAKRLTMLELLEKYPACEMKFSEFIALLPSIRPRYYSISSSPRVDEKQASITVSVVSGEAWSGYGEYKGIASNYLAELQEGDTITCFISTPQSEFTLPKDPETPLIMVGPGTGVAPFRGFVQARKQLKEQGQSLGEAHLYFGCRSPHEDYLYQEELENAQSEGIITLHTAFSRMPNQPKTYVQHVMEQDGKKLIELLDQGAHFYICGDGSQMAPAVEATLMKSYADVHQVSEADARLWLQQLEEKGRYAKDVWAG |  |  |  | 160 |  |  | 16% | 
4 | ABC-T268A: P450BM3 variant: T268A, C400S (protein, listed as Bacillus megaterium, cytochrome P450NADPH-P-450 reductase precursor, cytochrome P450 (BM3), CYP102A1, P450BM3 variant: T268A, C400S) TIKEMPQPKTFGELKNLPLLNTDKPVQALMKIADELGEIFKFEAPGRVTRYLSSQRLIKEACDESRFDKNLSQALKFVRDFAGDGLFTSWTHEKNWKKAHNILLPSFSQQAMKGYHAMMVDIAVQLVQKWERLNADEHIEVPEDMTRLTLDTIGLCGFNYRFNSFYRDQPHPFITSMVRALDEAMNKLQRANPDDPAYDENKRQFQEDIKVMNDLVDKIIADRKASGEQSDDLLTHMLNGKDPETGEPLDDENIRYQIITFLIAGHEATSGLLSFALYFLVKNPHVLQKAAEEAARVLVDPVPSYKQVKQLKYVGMVLNEALRLWPTAPAFSLYAKEDTVLGGEYPLEKGDELMVLIPQLHRDKTIWGDDVEEFRPERFENPSAIPQHAFKPFGNGQRASIGQQFALHEATLVLGMMLKHFDFEDHTNYELDIKETLTLKPEGFVVKAKSKKIPLGGIPSPSTEQSAKKVRKKAENAHNTPLLVLYGSNMGTAEGTARDLADIAMSKGFAPQVATLDSHAGNLPREGAVLIVTASYNGHPPDNAKQFVDWLDQASADEVKGVRYSVFGCGDKNWATTYQKVPAFIDETLAAKGAENIADRGEADASDDFEGTYEEWREHMWSDVAAYFNLDIENSEDNKSTLSLQFVDSAADMPLAKMHGAFSTNVVASKELQQPGSARSTRHLEIELPKEASYQEGDHLGVIPRNYEGIVNRVTARFGLDASQQIRLEAEEEKLAHLPLAKTVSVEELLQYVELQDPVTRTQLRAMAAKTVCPPHKVELEALLEKQAYKEQVLAKRLTMLELLEKYPACEMKFSEFIALLPSIRPRYYSISSSPRVDEKQASITVSVVSGEAWSGYGEYKGIASNYLAELQEGDTITCFISTPQSEFTLPKDPETPLIMVGPGTGVAPFRGFVQARKQLKEQGQSLGEAHLYFGCRSPHEDYLYQEELENAQSEGIITLHTAFSRMPNQPKTYVQHVMEQDGKKLIELLDQGAHFYICGDGSQMAPAVEATLMKSYADVHQVSEADARLWLQQLEEKGRYAKDVWAG |  |  |  | 95 |  |  | 9.5% | 22
5 | ABC-CIS: BM3-CIS + C400S (protein, listed as Bacillus megaterium, cytochrome P450NADPH-P-450 reductase precursor, cytochrome P450 (BM3), CYP102A1, BM3-CIS + C400S) TIKEMPQPKTFGELKNLPLLNTDKPVQALMKIADELGEIFKFEAPGRVTRYLSSQRLIKEACDESRFDKNLSQALKFARDFAGDGLVTSWTHEKNWKKAHNILLPSFSQQAMKGYHAMMVDIAVQLVQKWERLNADEHIEVSEDMTRLTLDTIGLCGFNYRFNSFYRDQPHPFIISMVRALDEVMNKLQRANPDDPAYDENKRQFQEDIKVMNDLVDKIIADRKARGEQSDDLLTQMLNGKDPETGEPLDDGNIRYQIITFLIAGHEATSGLLSFALYFLVKNPHVLQKVAEEAARVLVDPVPSYKQVKQLKYVGMVLNEALRLWPTAPAFSLYAKEDTVLGGEYPLEKGDEVMVLIPQLHRDKTVWGDDVEEFRPERFENPSAIPQHAFKPFGNGQRASIGQQFALHEATLVLGMMLKHFDFEDHTNYELDIKETLTLKPKGFVVKAKSKKIPLGGIPSPSTEQSAKKVRKKAENAHNTPLLVLYGSNMGTAEGTARDLADIAMSKGFAPQVATLDSHAGNLPREGAVLIVTASYNGHPPDNAKQFVDWLDQASADEVKGVRYSVFGCGDKNWATTYQKVPAFIDETLAAKGAENIADRGEADASDDFEGTYEEWREHMWSDVAAYFNLDIENSEDNKSTLSLQFVDSAADMPLAKMHGAFSTNVVASKELQQPGSARSTRHLEIELPKEASYQEGDHLGVIPRNYEGIVNRVTARFGLDASQQIRLEAEEEKLAHLPLAKTVSVEELLQYVELQDPVTRTQLRAMAAKTVCPPHKVELEALLEKQAYKEQVLAKRLTMLELLEKYPACEMKFSEFIALLPSIRPRYYSISSSPRVDEKQASITVSVVSGEAWSGYGEYKGIASNYLAELQEGDTITCFISTPQSEFTLPKDPETPLIMVGPGTGVAPFRGFVQARKQLKEQGQSLGEAHLYFGCRSPHEDYLYQEELENAQSEGIITLHTAFSRMPNQPKTYVQHVMEQDGKKLIELLDQGAHFYICGDGSQMAPAVEATLMKSYADVHQVSEADARLWLQQLEEKGRYAKDVWAG |  |  |  | 136 |  |  | 14% | 26
